In US20250122242A1, “SELECTION SYSTEMS, PEPTIDES DETERMINED THEREWITH, AND METHODS OF USING SAME” (Wisconsin Alumni Research Foundation, priority 2023, published 2025):

Assays:
[1] = target: T1, hIAPP (Homo sapiens, UniProt P10997); assay: Native mass spectrometry (nESI-MS) of peptide-hIAPP interaction; type: binding; details: peptide:hIAPP stoichiometry of complex
T1 construct: A 1 mg portion of amylin trifluoroacetate salt (Bachem) was purchased as lyophilized solid in a vial; purchased Bachem
T1 sequence (P10997 34-70 limits assumed): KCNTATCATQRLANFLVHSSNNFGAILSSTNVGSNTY
Experimental: hIAPP was dissolved in 200 mM ammonium acetate buffer (pH 7.4) to prepare 100 μM hIAPP stock solution. Cyclic peptide was first dissolved in DMSO to 10 mM, then diluted into the buffer to make 1 mM cyclic peptide stock solution. These stock solutions were diluted into the buffer to achieve final concentrations of [hIAPP]=16 μM and [cyclic peptide]=64 μM. The percentage of DMSO in the final solution was 0.64% for all the samples. Prepared samples were incubated quiescently for 20 min at 32° C. Native ESI-MS analysis was then performed on a SELECT SERIES Cyclic IMS Q-TOF (Waters Corp., Wilmslow, U.K.) equipped with nano-ESI interface.
All the samples were analyzed using positive ionization ESI with a capillary voltage of 1.1 kV. The following instrumental parameters were used: source temperature 100° C.; desolvation temperature 250° C.; sampling cone 30 V; backing pressure 2.5 mbar; trap collision energy 6 V; trap DC −4 V; transfer collision energy 4 V. The system was calibrated with NaI cluster ions from a 2 μg/μL 50:50 2-propanol:water solution. Data were acquired over the m/z range of 50-8000 and processed using MassLynxV4.2 (Waters Corp., Wilmslow, U.K.).

[2] = target: T2, hIAPP-T7n (UniProt P00573+P10997); details: for Percent total reads (positive selection) / Rank (positive selection): positive selection on hIAPP, high-throughput sequencing; for Rank (positive selection): top enriched sequences
From the text: (§1) Next, we examined if our system could discover inhibitors of other disease-associated APPs. We targeted human islet amyloid polypeptide (hIAPP), which forms amyloid deposits in patients with type-2 diabetes that are hypothesized to contribute to […] dysfunction.^40 To create a selection for hIAPP aggregation inhibitors, we simply cloned hIAPP in place of Aβ42 in our selection circuit (FIG. 2B). We used an SP-encoded CZ6 SICLOPPS library (Z=NDT codon encoded amino acid: R, N, D, C, G, H, I, L, F, S, Y, or V) (˜3×10^6 total sequences). This codon set was chosen to reduce the theoretical library size and facilitate library cloning. The library (total of ˜5×10^6 transformants) was cloned on a SP obtained from an additional 250 hours of PACE using a more stringent selection (FIGS. 10A-10D).
We performed five rounds of selection, diluting the SP pool by ten-fold each round (FIG. 4A). […] To verify that we selected phage with higher activity, we measured the propagation of the SP from each round on hIAPP selection cells, normalizing input phage titers to […] to enable head-to-head comparison between phage pools.
Single colonies of host cells transformed with the appropriate selection plasmids were used to make overnight cultures in 2×YT with maintenance antibiotics. The overnight culture was diluted (1:100) into 4-5 mL DRM with maintenance antibiotics and incubated at 37° C. with shaking until the OD600 of the culture reached ˜0.5, upon which the expanded phage library was added at a titer of 1×10^6 pfu/mL. The culture was incubated at 37° C. with shaking overnight (13-18 h). The next day, the culture was centrifuged at 8,000 rcf for 2 min to obtain the supernatant containing phage. The collected phage was diluted into fresh host cell cultures (10 to 1,000-fold) for the next round of selection, while the rest was stored at 4° C. for downstream analysis. This process was repeated until a significant increase in phage propagation was observed compared with the parent library. Both positive and negative selection rounds were performed using this procedure.
Sample preparation. Phage stocks collected from the final rounds of library selection were first amplified using LY0145 and LY0146. The PCR product was purified, and adapters added using LY0147 and LY0148. The resulting PCR product was purified and barcoded through a final PCR using index primers to add unique indices for shared Illumina NovaSeq sequencing. The final PCR product was purified, and the concentration measured by Nanodrop. Further sample quality control was performed by the University of Wisconsin-Madison Biotechnology Center (UWBC).
High-throughput sequencing and data analysis. High-throughput sequencing was performed by UWBC using a shared sequencing service on the NovaSeq 6000 platform. Sequencing reads were demultiplexed by UWBC and analyzed using custom-written Python scripts.

[3] = target: Aβ42-T7n (UniProt P00573+P05067); details: clonal SP encoding the sequence
From the text: Therefore, we turned to a split-T7 RNA polymerase (T7 RNAP) reporter used to evolve proteins with improved soluble expression.^33 In our new selection, host E. coli express an aggregation-prone protein (APP) fused to the N-terminal half of split-T7 RNAP (T7n). When the APP-T7n fusion is translated, it misfolds due to the APP, preventing T7n from associating with the C-terminal half of split-T7 RNAP (T7c; FIG. 2A). If a SP-encoded inhibitor binds to and prevents APP aggregation, the fused T7n will remain folded and join with T7c to produce full-length T7 RNAP. The reconstituted T7 RNAP then transcribes gIII, which we place under control of the T7 promoter (PT7), producing pill and allowing the SP to reproduce (FIGS. 2A and 2B).
We used the SICLOPPS method to biosynthesize cyclic peptides that can be selected in E. coli.^15 In SICLOPPS, a precursor fusion consisting of the C-terminal half of the Ssp DnaE split intein, the peptide sequence to be cyclized, and the N-terminal half of the same split intein undergoes intein splicing after translation to produce head-to-tail cyclized peptides (FIG. 7).
(§2) Strain S206035 was used for plasmid cloning, amplification, and phage assays. Strain S220835 was used for SP cloning and plaque assays. Plasmids and SPs were cloned by USER assembly or blunt-end ligation. Competent cells were prepared and transformed using the TSS method. Phage propagation and plaque assays were performed as previously described.^54 Unless otherwise noted, phage propagation assays used an input of […] phage to infect a 2 mL culture of host cells.

[4] = target: T2, hIAPP-T7n; details: clonal SP encoding the sequence (FIG. 5E)
From the text: as §1, §2

T2 sequence (P10997+P00573 fused): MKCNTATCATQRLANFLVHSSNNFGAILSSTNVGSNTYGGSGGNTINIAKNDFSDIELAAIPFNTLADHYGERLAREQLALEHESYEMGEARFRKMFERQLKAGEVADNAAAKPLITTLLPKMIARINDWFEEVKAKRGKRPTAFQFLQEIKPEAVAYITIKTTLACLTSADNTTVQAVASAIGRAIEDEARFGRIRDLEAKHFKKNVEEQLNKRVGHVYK
Chain of Aβ42-T7n (P05067+P00573 fused): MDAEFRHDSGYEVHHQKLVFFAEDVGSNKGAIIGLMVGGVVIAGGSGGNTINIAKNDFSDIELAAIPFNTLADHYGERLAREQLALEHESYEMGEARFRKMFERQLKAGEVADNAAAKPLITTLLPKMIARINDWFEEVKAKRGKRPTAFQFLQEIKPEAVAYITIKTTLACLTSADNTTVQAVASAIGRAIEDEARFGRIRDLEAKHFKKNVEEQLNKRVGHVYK

| Substance | complex with hIAPP detected by native mass spectrometry [1] | Percent total reads (positive selection) [2] [%] | Rank (positive selection) [2] | phage propagation activity (fitness) on Aβ42-T7n selection [3] | phage propagation activity on hIAPP-T7n selection [4] | share of sequencing reads in SP pool ([2]; round 5 of hIAPP positive selection, deep sequencing) [%] |
| --- | --- | --- | --- | --- | --- | --- |
| CDLGVFR (cyclised; Circular) [cyclo-CDLGVFR] | 1:1 complexes | 0.08 | 14 | – | – | – |
| CHVVGVI (cyclised; Circular) [cyclo-CHVVGVI] | 1:1 complex | 94.40 | 1 | propagated robustly | propagated robustly | ~95 |
| CRCVFSG (cyclised; Circular) [cyclo-CRCVFSG] | 1:1 complexes | 0.04 | 20 | – | – | – |
